# Test results: patent publication US20220220215A1 (CRESCENDO BIOLOGICS, published 2022)
# B1: TPP-1028: CD137A-6GS-HSA3-6GS-PD138G7(G109D)-His (bispecific antibody)
# chain: EVQLVESGGGLVQPGGSLRLSCAASGFTLSNYWMNWVRQAPGKGLEWVANINQDGSERYYVDSVKGRFTISRDNAKNSLYLQMNSLRAEDTAVYYCARGGEGYGVDHYGLDVSGQGTTVTVSSGGGGSGGGGSGGGGSGGGGSGGGGSGGGGSEVQLLESGGGLVKPGGSLRLSCAASGFTVSSYTMNWVRQAPGKGLEWVSSISSSGRYIYYADSVKGRFTISRDNAKNSLYLQMNSLRAEDTAVYYCARDPRMVGNPHEFDIWGQGTMVTVSSGGGGSGGGGSGGGGSGGGGSGGGGSGGGGSEVQLVESGGGVVRPGGSLRLSCAASGFTFDDYAMSWVRQAPGKGLEWVSGITWNGGSTGYADSVKDRFTISRDNAKNSLYLQMNSLRAEDTALYYCVRDKYSYAWSYDDFDIWGQGTMVTVSSAAAHHHHHH
# B2: TPP-1245 CD137A-6GS-PDA2-6GS-HSA2 (bispecific antibody)
# chain: EVQLVESGGGLVQPGGSLRLSCAASGFTLSNYWMNWVRQAPGKGLEWVANINQDGSERYYVDSVKGRFTISRDNAKNSLYLQMNSLRAEDTAVYYCARGGEGYGVDHYGLDVSGQGTTVTVSSGGGGSGGGGSGGGGSGGGGSGGGGSGGGGSEVQLVESGGGVVRPGGSLRLSCAASGFTFDDYAMSWVRQAPGKGLEWVSGITWNAGSTGYADSVKGRFTISRDNAKNSLYLQMNSLRAEDTALYYCVRDKYSYAWSYDDFDIWGQGTMVTVSSGGGGSGGGGSGGGGSGGGGSGGGGSGGGGSEVQLVESGGGLVKPGGSLRLSCAASGFTFSNYNMNWVRQAPGKGLEWVSSISSAGTHIYYADSVKGRFTISRDNAKNSLYLQMNSLRAEDTAVYYCARDPHSTGWYKDFDYWGQGTLVTVSS
# B3: TPP-1247 CD137A-6GS-HSA3-6GS-PD138G7(G109D) (bispecific antibody)
# chain: EVQLVESGGGLVQPGGSLRLSCAASGFTLSNYWMNWVRQAPGKGLEWVANINQDGSERYYVDSVKGRFTISRDNAKNSLYLQMNSLRAEDTAVYYCARGGEGYGVDHYGLDVSGQGTTVTVSSGGGGSGGGGSGGGGSGGGGSGGGGSGGGGSEVQLLESGGGLVKPGGSLRLSCAASGFTVSSYTMNWVRQAPGKGLEWVSSISSSGRYIYYADSVKGRFTISRDNAKNSLYLQMNSLRAEDTAVYYCARDPRMVGNPHEFDIWGQGTMVTVSSGGGGSGGGGSGGGGSGGGGSGGGGSGGGGSEVQLVESGGGVVRPGGSLRLSCAASGFTFDDYAMSWVRQAPGKGLEWVSGITWNGGSTGYADSVKDRFTISRDNAKNSLYLQMNSLRAEDTALYYCVRDKYSYAWSYDDFDIWGQGTMVTVSS
# B4: 003BB172-E01-1 (VHH)
# VHH: EVQLVESGGGLVQPGGSLRLSCAASGFTFSNYGMHWVRQAPGKGLEWVAVISNDGNTKTYADSVKGRFTISRDNSKNMLYLQMTSLRTEDTAVYYCAQDETTTVTASYYFDYWGQGTLVTVSS
# notes: Human VH single domain antibody, monovalent
# B5: 003BB172-E01-2 (VHH)
# VHH: EVQLVESGGGLVQPGGSLRLSCAASGFTFSNYGMHWVRQAPGKRLEWVAVISNDGNTKTYADSVKGRFTISRDNSKNTLYLQMTSLRTEDTAVYYCAQDETTTVTASYYFDYWGQGTLVTVSS
# notes: as for B4
# B6: 003BB172-E01-3 (VHH)
# VHH: EVQLVESGGGLVQPGGSLRLSCAASGFTFSNYGMHWVRQAPGKRLEWVAVISNDGNTKTYADSVKGRFTISRDNSKNMLYLQMNSLRTEDTAVYYCAQDETTTVTASYYFDYWGQGTLVTVSS
# notes: as for B4
# B7: 003BB172-E01-4 (VHH)
# VHH: EVQLVESGGGLVQPGGSLRLSCAASGFTFSNYGMHWVRQAPGKGLEWVAVISNDGNTKTYADSVKGRFTISRDNSKNTLYLQMTSLRTEDTAVYYCAQDETTTVTASYYFDYWGQGTLVTVSS
# notes: as for B4
# B8: TPP-1293 (PDBlocker1.92-6GS- CD137A -6GS-HSA2) (bispecific antibody)
# chain: EVQLVESGGGLVKPGGSLRLSCAASGFTFSDESMTWMRQAPGKGLEWVSYISSGGGVKFYADSVKGRFTISRDNAKNSLYLQMNSLRAEDTAVYYCAREAPLRLGESPHDAFDISGQGTMVTVSSGGGGSGGGGSGGGGSGGGGSGGGGSGGGGSEVQLVESGGGLVQPGGSLRLSCAASGFTLSNYWMNWVRQAPGKGLEWVANINQDGSERYYVDSVKGRFTISRDNAKNSLYLQMNSLRAEDTAVYYCARGGEGYGVDHYGLDVSGQGTTVTVSSGGGGSGGGGSGGGGSGGGGSGGGGSGGGGSEVQLVESGGGLVKPGGSLRLSCAASGFTFSNYNMNWVRQAPGKGLEWVSSISSAGTHIYYADSVKGRFTISRDNAKNSLYLQMNSLRAEDTAVYYCARDPHSTGWYKDFDYWGQGTLVTVSS
# Legend:
# [1] = molecular target: T1, biotinylated human PD-1-His tagged protein (human, UniProt Q15116 25-170, biotinylated); assay: SPR, Biacore 8K, multi-cycle kinetics; biotinylated antigen captured on streptavidin chip; 1:1 model
# T1 construct: not shown: His tag
# Procedure: (§1) Multi cycle kinetics assays were then used to evaluate the kinetics and affinity of the interaction. Experiments were performed at […] in HBS-EP+ assay buffer with a flow rate of 30 μl/minute. A streptavidin chip (Streptavidin (SA), Series S, GE Healthcare BR100531) was used to capture the biotinylated human CD137 or human PD-1 reaching a maximum of 75RU or 200RU respectively. A second flow cell without any captured antigen was used as the reference cell. […] The binding kinetics were followed by flowing these over the chip surface. The contact time for the binding steps was 360 or 180 seconds and the dissociation step was 3600 or 1200 seconds for human CD137 and PD1 respectively. After each run, the sensors were regenerated with glycine pH 1.5 to remove the captured Humabody® VH. The data was fitted to a 1:1 binding model after reference subtraction using the Biacore Evaluation software. Example kinetic and binding affinity data obtained is shown Table 19.
# [2] = molecular target: T2, biotinylated human CD137-His (human, UniProt Q07011 24-186, biotinylated); assay: as above
# T2 construct: not shown: His tag
# Procedure: as §1
# [3] = molecular target: human CD137 expressed on cells (Jurkat human CD137 NF-kB luciferase reporter cells; human CD8+ T cells) (human, UniProt Q07011 24-255); assay: cell-based or functional assay
# [4] = molecular target: T3, recombinant Fc-tagged ectodomain of cynomolgus CD137 (R&D S9324-4b) (cynomolgus macaque, UniProt A9YYE7 24-186); assay: SPR, Biacore 8K, single-cycle kinetics; Fc-tagged ectodomain captured on Protein G chip; 1:1 model
# T3 construct: Bought protein; also called Cyno CD137; cynomolgus macaque CD137; not shown: Fc tag and any linker to it
# Procedure: (§2) Binding of Humabody® VH constructs was measured using a single-cycle kinetics method using the BIAcore 8K instrument with 90 second sample injections with a sample concentration range of low nanomolar to high nanomolar. […] The Protein G sensor surface was regenerated with a 20 second injection of 10 mM Glycine buffer, pH 1.5 (GE Healthcare BR100354). Data were analysed using a 1:1 binding model in Biacore Insight Evaluation software, including Humabody® VH constructs with two PD-1 arms.
# [5] = molecular target: T4, recombinant Fc-tagged ectodomain of human PD1 (Acro Biosystems PD1-H5257) (human, UniProt Q15116 25-170); assay: as above
# T4 construct: Bought protein; not shown: Fc tag
# Procedure: as §2
# [6] = molecular target: T5, recombinant Fc-tagged ectodomain of human CD137 (Acro Biosystems 41B-H5258) (human, UniProt Q07011 24-186); assay: as above
# T5 construct: Bought protein; not shown: Fc tag
# Procedure: as §2
# [7] = molecular target: T6, recombinant Fc-tagged ectodomain of cynomolgus PD1 (Acro Biosystems PD1-C5254) (cynomolgus macaque, UniProt B0LAJ3 25-170); assay: as above
# T6 construct: Bought protein; also called Cyno PD1; cynomolgus macaque PD1; not shown: Fc tag and any linker to it
# Procedure: as §2
# [8] = molecular target: T7, human CD137 expressed on CHO cells (human, UniProt Q07011 18-255); assay: FMAT/Mirrorball on CHO huCD137 cells
# T7 construct: also called CHO huCD137; CHO human CD137 cells
# Summary of the method: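 His-tagged VH molecules bound to CHO cells expressing human PD-1 or human CD137, with CHO parent cells as control, in PBS pH 7.4, 0.1% BSA, 0.05% sodium azide. Read by FMAT on Mirrorball (ex 488/640 nm); binding taken as FL2 median fluorescence intensity of FL5-gated events.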
# [9] = molecular target: T8, Rhesus CD137-Fc tagged protein (rhesus, UniProt H9Z8K9 24-186); assay: BLI (Octet RED384), CD137-Fc on Protein G sensor, 1:1 model
# T8 construct: extracellular domain; The Octet paragraph gives no catalogue number; also called rhCD137-Fc
# Procedure: (§3) Binding kinetics of purified monovalent VH molecules were measured on a ForteBio Octet RED 384 instrument. Human and Rhesus CD137-Fc tagged protein was diluted to 5 μg/ml in kinetics buffer (0.05% Tween, 1×PBS) and coupled to Protein G biosensors (ForteBio cat no. 18-5082) via the Fc tag. VH were serially diluted (typically 1:2 dilution series starting with 200 nM, VH at the highest concentration) and binding to the CD137-Fc-coupled Protein G biosensors measured. Binding kinetics were determined from the (blank subtracted) sensor gram trace using 1:1 binding models and ForteBio Octet Data Analysis 9.0 software. Example kinetic and binding affinity data obtained is shown Table 18 (monovalent VH).
# [10] = molecular target: T9, human CD137-Fc recombinant protein (Acro Biosystems 41B-H5258) (human, UniProt Q07011 24-186); assay: as above
# T9 construct: Bought protein; The Octet paragraph gives no catalogue number for its human CD137-Fc; also called hCD137-Fc; CD137-Fc tagged protein
# Procedure: as §3
# [11] = molecular target: T10, human PD-1 expressed on CHO cells (human, UniProt Q15116 21-288); assay: flow cytometry on CHO huPD1 cells
# T10 construct: also called CHO huPD1; CHO human PD1 cells
Binder,Jurkat-CD137/CHO-PD-1 Reporter Assay EC50 [3] [nM],EC50 [8] [nM],Kd [9] [nM],koff [9] [s⁻¹],kon [9] [M⁻¹ s⁻¹],Kd [10] [nM],koff [10] [s⁻¹],kon [10] [M⁻¹ s⁻¹],further results
B1,0.312,–,–,–,–,–,–,–,Kd [1]: 5.83 nM; koff [1]: 0.00235 s⁻¹; kon [1]: 403000 M⁻¹ s⁻¹; Kd [2]: 0.0281 nM; koff [2]: 1.9e-05 s⁻¹; kon [2]: 674000 M⁻¹ s⁻¹
B2,0.113,–,–,–,–,–,–,–,Kd [4]: 0.728 nM; koff [4]: 0.000263 s⁻¹; kon [4]: 361000 M⁻¹ s⁻¹; Kd [5]: 87.6 nM; koff [5]: 0.0762 s⁻¹; kon [5]: 869000 M⁻¹ s⁻¹; Kd [6]: 0.471 nM; koff [6]: 0.000179 s⁻¹; kon [6]: 381000 M⁻¹ s⁻¹; Kd [7]: 102 nM; koff [7]: 0.0505 s⁻¹; kon [7]: 493000 M⁻¹ s⁻¹
B3,0.0583,–,–,–,–,–,–,–,Kd [4]: 0.543 nM; koff [4]: 0.00017 s⁻¹; kon [4]: 313000 M⁻¹ s⁻¹; Kd [5]: 7.77 nM; koff [5]: 0.00214 s⁻¹; kon [5]: 276000 M⁻¹ s⁻¹; Kd [6]: 0.295 nM; koff [6]: 9.85e-05 s⁻¹; kon [6]: 334000 M⁻¹ s⁻¹; Kd [7]: 16.9 nM; koff [7]: 0.00494 s⁻¹; kon [7]: 293000 M⁻¹ s⁻¹
B4,–,1.35,21.9,0.00267,122000,17.8,0.00214,120000,–
B5,–,1.74,25.9,0.00159,61300,18.6,0.00137,73200,–
B6,–,1.06,24.8,0.00157,55300,24.5,0.00161,66000,–
B7,–,1.33,32.2,0.00216,67100,25.7,0.00184,71600,–
B8,–,–,–,–,–,–,–,–,EC50 [11]: 44.8 nM
